{"source": "paper PMC3411106", "about": "“Structural analysis of the human SYCE2–TEX12 complex provides molecular insights into synaptonemal complex assembly” (Open Biology, 2012)", "molecules": {"B1": {"name": "SYCE2_(57–165), tag cleaved (domain or fragment, human, UniProt Q6PIF2 57-165, looked up)", "chain": "GLYFSSLDSSIDILQKRAQELIENINKSRQKDHALMTNFRNSLKTKVSDLTEKLEERIYQIYNDHNKIIQEKLQEFTQKMAKISHLETELKQVCHSVETVYKDLCLQPE", "notes": "also called central conserved region of SYCE2; source: E. coli Rosetta 2 (DE3), co-expressed with TEX12 constructs, co-purified (Ni–NTA, amylose, TEV cleavage, Resource Q); not shown: MBP, N-terminal, cleaved"}}, "key": {"MBP–SYCE2 (1–218) [1]": {"target": "T1, MBP–SYCE2 (1–218) (human, UniProt Q6PIF2 1-218)", "T1 construct": "Tetramer by SEC–MALS; also called full-length SYCE2; source: E. coli Rosetta 2 (DE3); co-expressed (pRSFDuet-1), in clarified lysate for the pull-down; individually expressed, purified on amylose resin for SEC–MALS; not shown: MBP, N-terminal, kept", "T1 sequence (looked up)": "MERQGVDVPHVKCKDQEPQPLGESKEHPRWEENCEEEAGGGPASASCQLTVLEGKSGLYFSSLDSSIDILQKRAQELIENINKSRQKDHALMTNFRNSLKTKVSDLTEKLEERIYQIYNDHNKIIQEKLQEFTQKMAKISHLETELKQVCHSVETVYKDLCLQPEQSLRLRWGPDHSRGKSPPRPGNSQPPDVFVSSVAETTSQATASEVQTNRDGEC", "assay": "SEC-MALS; 100 µl at 1–5 mg ml^−1 on Superdex 200 10/300 GL; 20 mM Tris pH 8.0, 150 mM KCl, 2 mM DTT; purified complexes or purified fusion proteins"}, "[2]": {"target": "His–SYCE2 (1–218) (human) (UniProt Q6PIF2)", "assay": "SEC-MALS; 100 µl at 1–5 mg ml^−1 on Superdex 200 10/300 GL; 20 mM Tris pH 8.0, 150 mM KCl, 2 mM DTT; purified complexes or purified fusion proteins"}, "[3]": {"target": "the molecule itself", "assay": "SEC-MALS; 100 µl at 1–5 mg ml^−1 on Superdex 200 10/300 GL; 20 mM Tris pH 8.0, 150 mM KCl, 2 mM DTT; purified complexes or purified fusion proteins"}, "[4]": {"target": "B1", "assay": "SDS–PAGE band densitometry of the purified complex; Coomassie-stained SDS–PAGE of the co-purified, tag-cleaved complex; densitometry with IMAGEJ", "conditions": "both partners purified"}, "MBP–SYCE2 (1–218) [5]": {"target": "T1, MBP–SYCE2 (1–218)", "assay": "pull-down; amylose pull-down after co-expression in bacteria of MBP-fusion SYCE2 constructs (bait) with His-tagged TEX12 or SYCE2 constructs; lysis in 20 mM Tris pH 8.0, 500 mM KCl, 2 mM DTT; 1 h at 4°C; maltose elution; Coomassie-stained SDS–PAGE", "conditions": "partners not purified"}, "MBP–SYCE2_(57–88)": {"target": "T2, MBP–SYCE2_(57–88) (human, UniProt Q6PIF2 57-88)", "T2 construct": "human SYCE2, residues 57–88 (α1 region); Monomer by SEC–MALS; also called α1 region of SYCE2; source: E. coli Rosetta 2 (DE3); co-expressed (pRSFDuet-1), in clarified lysate for the pull-down; individually expressed, purified on amylose resin for SEC–MALS; not shown: MBP, N-terminal, kept", "T2 chain (looked up)": "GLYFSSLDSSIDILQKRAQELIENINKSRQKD", "assay": "pull-down; amylose pull-down after co-expression in bacteria of MBP-fusion SYCE2 constructs (bait) with His-tagged TEX12 or SYCE2 constructs; lysis in 20 mM Tris pH 8.0, 500 mM KCl, 2 mM DTT; 1 h at 4°C; maltose elution; Coomassie-stained SDS–PAGE", "conditions": "partners not purified"}, "[6]": {"target": "the molecule itself", "assay": "AUC; sedimentation velocity of co-purified, tag-cleaved complexes; SYCE2_(57–165)–TEX12 at 57 µM, SYCE2_(57–165)–TEX12_(49–123) at 289 µM; 20 mM Tris pH 8.0, 145 mM KCl, 2 mM DTT; 30 000 r.p.m., 20°C; c(S) fit"}}, "data": [{"molecule": "MBP–SYCE2 (1–218) (from UniProt Q6PIF2 1-218) (natural protein)", "values": [{"measurement": "stoichiometry N", "setting": "MBP–SYCE2 (1–218) [1]", "value": 4}]}, {"molecule": "His–SYCE2 (1–218) (from UniProt Q6PIF2 1-218) (natural protein)", "values": [{"measurement": "stoichiometry N", "setting": "[2]", "value": 4}]}, {"molecule": "MBP-TEX12_(24–123) (domain or fragment, human, UniProt Q9BXU0 24-123, looked up, Dimer by SEC–MALS; source: E. coli Rosetta 2 (DE3), individually expressed, purified on amylose resin; not shown: MBP, N-terminal, kept) VPDSPQLSSLGKSDSSFSEISGLFYKDEALEKDLNDVSKEINLMLSTYAKLLSERAAVDASYIDEIDELFKEANAIENFLIQKREFLRQRFTVIANTLHR", "values": [{"measurement": "stoichiometry N", "setting": "[3]", "value": 2}]}, {"molecule": "TEX12 (1–123), tag cleaved (natural protein, human, UniProt Q9BXU0 1-123, looked up, not shown: His-tag, N-terminal, cleaved) MMANHLVKPDNRNCKRPRELESPVPDSPQLSSLGKSDSSFSEISGLFYKDEALEKDLNDVSKEINLMLSTYAKLLSERAAVDASYIDEIDELFKEANAIENFLIQKREFLRQRFTVIANTLHR", "values": [{"measurement": "stoichiometry N", "setting": "[4]", "value": 1}]}, {"molecule": "His–TEX12 (1–123) (natural protein, human, UniProt Q9BXU0 1-123, looked up, source: E. coli Rosetta 2 (DE3), co-expressed (pRSFDuet-1), in clarified lysate; not shown: His-tag, N-terminal, kept) MMANHLVKPDNRNCKRPRELESPVPDSPQLSSLGKSDSSFSEISGLFYKDEALEKDLNDVSKEINLMLSTYAKLLSERAAVDASYIDEIDELFKEANAIENFLIQKREFLRQRFTVIANTLHR", "values": [{"measurement": "integrated intensity of the TEX12 band relative to 57–165", "setting": "MBP–SYCE2 (1–218) [5]", "value": 62, "unit": "%"}, {"measurement": "integrated intensity of the TEX12 band relative to 57–165", "setting": "MBP–SYCE2_(57–88)", "value": 96, "unit": "%"}]}, {"molecule": "MBP–TEX12_(1–123) (natural protein, human, UniProt Q9BXU0 1-123, looked up, Homodimer by SEC–MALS; source: E. coli Rosetta 2 (DE3), individually expressed, purified on amylose resin; not shown: MBP, N-terminal, kept) MMANHLVKPDNRNCKRPRELESPVPDSPQLSSLGKSDSSFSEISGLFYKDEALEKDLNDVSKEINLMLSTYAKLLSERAAVDASYIDEIDELFKEANAIENFLIQKREFLRQRFTVIANTLHR", "values": [{"measurement": "stoichiometry N", "setting": "[3]", "value": 2}]}, {"molecule": "TEX12_(49–123), tag cleaved (domain or fragment, human, UniProt Q9BXU0 49-123, looked up, not shown: His-tag, N-terminal, cleaved) KDEALEKDLNDVSKEINLMLSTYAKLLSERAAVDASYIDEIDELFKEANAIENFLIQKREFLRQRFTVIANTLHR", "values": [{"measurement": "stoichiometry N", "setting": "[4]", "value": 1}]}, {"molecule": "MBP-TEX12_(49–123) (domain or fragment, human, UniProt Q9BXU0 49-123, looked up, Dimer by SEC–MALS; source: E. coli Rosetta 2 (DE3), individually expressed, purified on amylose resin; not shown: MBP, N-terminal, kept) KDEALEKDLNDVSKEINLMLSTYAKLLSERAAVDASYIDEIDELFKEANAIENFLIQKREFLRQRFTVIANTLHR", "values": [{"measurement": "stoichiometry N", "setting": "[3]", "value": 2}]}, {"molecule": "B1", "values": [{"measurement": "binding result", "setting": "[6]", "value": "binds"}]}]}
